Experimental data from patent US20120329994A1.
pKd: −log10 of the molar value.

How the values were obtained:
[1] = molecular target: WNV E ectodomain (residues 1-404) of the New York 1999 strain, expressed in E. coli and refolded (West Nile virus, New York 1999 strain) (UniProt Q9Q6P4); experiment: SPR
[2] = molecular target: WNV DIII (residues 296-404) of the New York 1999 strain, expressed in E. coli and refolded (West Nile virus, New York 1999 strain) (UniProt Q9Q6P4); experiment: SPR

Substance | pKd [1] | pKd [2]
mHu-E16 (humanized E16 monoclonal antibody produced in CHO cells) | 7.35 | 7.49
pHu-E16 (plant-produced humanized E16 monoclonal antibody, made in N. benthamiana) | 7.34 | 7.39
